Experimental findings from PMC4507774, “Arabidopsis seed-specific vacuolar aquaporins are involved in maintaining seed longevity under the control of ABSCISIC ACID INSENSITIVE 3” are described below.

Data set [1] deals with T1, ABI3-B3 (partial ABI3, B3 domain) (UniProt Q01593 559-720).
T1 sequence: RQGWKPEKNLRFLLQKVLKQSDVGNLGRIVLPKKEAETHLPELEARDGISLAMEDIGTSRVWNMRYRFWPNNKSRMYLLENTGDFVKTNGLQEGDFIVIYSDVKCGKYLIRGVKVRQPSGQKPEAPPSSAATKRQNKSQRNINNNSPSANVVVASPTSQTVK
In words: competition; 40- or 200-fold unlabelled competitor vs 32RY-bio; EMSA: 1x LightShift binding buffer, 2.5% glycerol, 50 ng/ul poly(dI-dC), 50 mM KCl, 0.5 mM EDTA, 20 C, 30 min; pH not stated. Conditions: protein: recombinant; tags: His (pET28a, Ni-NTA); blunt. On the technique in general: Mobility shift assays separate free from complexed probe on a gel.

Data set [2] addresses T1, ABI3-B3 (partial ABI3, B3 domain). In words: EMSA; EMSA: 1x LightShift binding buffer, 2.5% glycerol, 50 ng/ul poly(dI-dC), 50 mM KCl, 0.5 mM EDTA, 20 C, 30 min; pH not stated. Conditions: protein: recombinant; tags: His (pET28a, Ni-NTA); label: biotin; blunt.
Data set [3] shares this target. In words: competition; 40- or 200-fold unlabelled competitor vs 31RY2-bio; EMSA: 1x LightShift binding buffer, 2.5% glycerol, 50 ng/ul poly(dI-dC), 50 mM KCl, 0.5 mM EDTA, 20 C, 30 min; pH not stated. Conditions: protein: recombinant; tags: His (pET28a, Ni-NTA); blunt.

B1: 32RY-mu (dsDNA)
DNA 1: CTTGATCCACTTGGCACAGCGTACTAGATATATAGTCACAGC
DNA 2: GCTGTGACTATATATCTAGTACGCTGTGCCAAGTGGATCAAG
For the molecule B1, the binding result in data set [1] was “no binding”.

B2: 32RY-bio (TIP3;2 promoter RY) (dsDNA)
DNA 1: CTTGATCCACTTGGCACACATGCATAGATATATAGTCACAGC
DNA 2: GCTGTGACTATATATCTATGCATGTGTGCCAAGTGGATCAAG
For the molecule B2, the binding result in data set [2] is “binds”.

B3: 32RY-cold (dsDNA)
DNA 1: B2 DNA 1
DNA 2: B2 DNA 2
As to B3, in data set [1], the binding result was “binds”.

B4: 31RY2-mu (dsDNA)
DNA 1: ATCTACTTGGCACAGCGCTAGCCTTAGTCAACACA
DNA 2: TGTGTTGACTAAGGCTAGCGCTGTGCCAAGTAGAT
B4: the binding result in data set [3] was “no binding”.

B5: 31RY2-bio (TIP3;1 promoter RY2) (dsDNA)
DNA 1: ATCTACTTGGCACACATGCATGCTTAGTCAACACA
DNA 2: TGTGTTGACTAAGCATGCATGTGTGCCAAGTAGAT
As for B5, the binding result in data set [2] is on record as “binds”.

B6: 31RY2-cold (dsDNA)
DNA 1: B5 DNA 1
DNA 2: B5 DNA 2
B6: in data set [3], the binding result is recorded as “binds”.
